Results reported in the supplement of paper PMC10899765.

Legend:
Settings in all cases: 20 nM; 72 h
MCF10A [1] = assay: percent viability (nuclei count relative to siNT); higher = more viable cells
Description: (§1)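 After 72 h, cells were fixed and stained with Hoechst and anti-fibrillarin, and nucleoli per nucleus were counted with CellProfiler. Values are plate-adjusted percent effect for the one-nucleolus and 5+ nucleoli phenotypes, normalised to siNT (0%) and to the positive controls siNOL11 or siKIF11 (100%), as the mean of biological triplicates. Percent viability is the nuclei count relative to siNT.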

MCF10A [2] = assay: 5+ nucleoli phenotype percent effect (relative to siNT 0% and siKIF11 100%); higher = more cells with five or more nucleoli
Description: as §1

MCF10A [3] = assay: one-nucleolus phenotype percent effect (relative to siNT 0% and siNOL11 100%); higher = more cells with one nucleolus (ribosome biogenesis inhibition)
Description: as §1

Row | Sequence | percent viability (MCF10A [1]) | 5+ nucleoli phenotype percent effect (MCF10A [2]) | one-nucleolus phenotype percent effect (MCF10A [3])
1 | UCCACUCUCCUGGCCCCCAG [hsa-miR-6777-3p] | 51% | 14.3% | -16.2%
2 | UCCAGCAUCAGUGAUUUUGUUG [hsa-miR-338-3p] | 98.2% | 26.3% | -13.2%
3 | UCCAGCUCGGUGGCAC [hsa-miR-4267] | 34.5% | 11.3% | -0.0012%
4 | UCCAGGCAGGAGCCGGACUGGA [hsa-miR-4673] | 62.5% | 14.9% | -17.9%
5 | UCCAGGGAGACAGUGUGUGAG [hsa-miR-7113-5p] | 32.5% | -2.05% | 23.5%
6 | UCCAGUACAGGUCUCUCAUUUC [hsa-miR-4712-5p] | 81.3% | -15.1% | 11%
7 | UCCAGUACCACGUGUCAGGGCCA [hsa-miR-770-5p] | 55.6% | -28.6% | 29.4%
8 | UCCAGUGCCCUCCUCUCC [hsa-miR-1825] | 70.3% | -2.13% | -8.72%
9 | UCCAUGUUUCCUUCCCCCUUCU [hsa-miR-4716-5p] | 28.8% | -43.5% | 45.4%
10 | UCCAUUACACUACCCUGCCUCU [hsa-miR-885-5p] | 71.4% | -8.23% | -5.62%
11 | UCCCAAGGGUGAGAUGCUGCCA [hsa-miR-6814-5p] | 48.6% | -13.3% | 7.66%
12 | UCCCACGUUGUGGCCCAGCAG [hsa-miR-662] | 128% | 35.3% | -20.4%
13 | UCCCACUACUUCACUUGUGA [hsa-miR-4301] | 45.1% | 60.9% | -19.4%
14 | UCCCAGGGUCUGGUCAGAGUUG [hsa-miR-6764-5p] | 25.8% | -18.4% | 29.5%
15 | UCCCCAACCCCUGCCCGCAG [hsa-miR-6793-3p] | 27.6% | -15.2% | 13.9%
16 | UCCCCCAGGUGUGAUUCUGAUUU [hsa-miR-361-3p] | 74.8% | 21.5% | -5.19%
17 | UCCCCUCCACUUUCCUCCUAG [hsa-miR-6887-3p] | 33.5% | -13.1% | -0.315%
18 | UCCCCUGCUCCCUUGUUCCCCAG [hsa-miR-6810-3p] | 35.1% | 4.97% | 3.27%
19 | UCCCCUUCCUCCCUGCCCAG [hsa-miR-6756-3p] | 51.9% | 16.4% | -12.3%
20 | UCCCCUUCUGCAGGCCUGCUGG [hsa-miR-3127-3p] | 144% | 34.9% | -24.5%
21 | UCCCUACCCCUCCACUCCCCA [hsa-miR-3162-3p] | 75.9% | 53.4% | -5.78%
22 | UCCCUCCUUCUGUCCCCACAG [hsa-miR-4667-3p] | 71.8% | -12.9% | -2.78%
23 | UCCCUCGCCUUCUCACCCUCAG [hsa-miR-6803-3p] | 58.1% | 25.3% | -18.8%
24 | UCCCUCUCCCACCCCUUGCAG [hsa-miR-6892-3p] | 52.2% | 42.4% | -29%

Row | Sequence | percent viability (MCF10A [1]) | 5+ nucleoli phenotype percent effect (MCF10A [2]) | one-nucleolus phenotype percent effect (MCF10A [3])
25 | UCCCUGAGACCCUAACUUGUGA [hsa-miR-125b-5p] | 93.8% | 17.3% | -11.8%
26 | UCCCUGAGACCCUUUAACCUGUGA [hsa-miR-125a-5p] | 117% | 28.8% | -18.8%
27 | UCCCUGAGCAAAGCCAC [hsa-miR-4319] | 59.9% | 9.87% | -1.9%
28 | UCCCUGCCCCCAUACUCCCAG [hsa-miR-6752-3p] | 28.7% | -28.9% | 14.5%
29 | UCCCUGGAGUUUCUUCUU [hsa-miR-4308] | 53.7% | 27.5% | -7.67%
30 | UCCCUGUCCUCCAGGAGCUCACG [hsa-miR-339-5p] | 51.6% | -0.871% | 0.467%
31 | UCCCUUCUUCCUGGGCCCUCA [hsa-miR-5088-3p] | 59.2% | 70.3% | -36.6%
32 | UCCCUUGUCUCCUUUCCCUAG [hsa-miR-6780b-3p] | 68.9% | 32.5% | -21.9%
33 | UCCGAACUCUCCAUUCCUCUGC [hsa-miR-6716-3p] | 166% | 35.3% | -19.3%
34 | UCCGAGCCUGGGUCUCCCUCUU [hsa-miR-615-3p] | 74.9% | -0.788% | -6.23%
35 | UCCGGUUCUCAGGGCUCCACC [hsa-miR-671-3p] | 15.2% | -33.5% | 54.3%
36 | UCCGUACAAACUCUGCUGUG [hsa-miR-3678-5p] | 64.4% | -49.2% | 39.4%
37 | UCCGUCUCAGUUACUUUAUAGC [hsa-miR-340-3p] | 74% | 26.3% | 1.48%
38 | UCCUAAAUCUGAAAGUCCAAAA [hsa-miR-5009-3p] | 117% | 46.2% | -25.9%
39 | UCCUACGCUGCUCUCUCACUCC [hsa-miR-6761-3p] | 43.5% | 14.2% | -18.4%
40 | UCCUCAUCACACUGCACCUUAG [hsa-miR-6072] | 32.4% | -18.4% | 13.4%
41 | UCCUCCUCUACCUCAUCCCAGU [hsa-miR-5193] | 35.1% | -13.6% | 9.86%
42 | UCCUCUUCUCCCUCCUCCCAG [hsa-miR-877-3p] | 59% | -15.4% | 6.33%
43 | UCCUGCCACCUCCUCCGCAG [hsa-miR-6727-3p] | 32.5% | -26.4% | 19.2%
44 | UCCUGCCUUCCUCUGCACCAG [hsa-miR-6747-3p] | 27% | -28.9% | 16%
45 | UCCUGCGCGUCCCAGAUGCCC [hsa-miR-1539] | 60.9% | -2.94% | 15.6%
46 | UCCUGCGUAGGAUCUGAGGAGU [hsa-miR-3193] | 58.9% | 10.1% | -18.1%
47 | UCCUGUACUGAGCUGCCCCGAG [hsa-miR-486-5p] | 41.3% | 1.79% | 4.53%
48 | UCCUGUCCCUGUCUCCUACAG [hsa-miR-6748-3p] | 47% | 17% | -15.9%
